The values below come from publication PMC2172020.

For orientation: stoichiometry N means a count of units in the complex or per binding partner.

This assay deals with HIS-CLIP-170 (rat) (UniProt Q9JK25). The assay can be described thus: scanning force microscopy.

The substance “HIS-CLIP-170 (from UniProt Q9JK25 1-1320) (natural protein)” yielded a stoichiometry N of 2.
